Measurements reported in US20260016475A1 (VENTANA MEDICAL SYSTEMS, published 2026).
Where no end group is shown, it is not given here.

How the values were obtained:
human TAP1 protein = molecular target: T1, human TAP1 protein (human, UniProt Q03518 1-748); test: IHC on sections of cell blocks of 293T, 293T-TAP1 and 293T-TAP2 cells
T1 construct: It is an intracellular protein; also called recombinant TAP1
T1 sequence: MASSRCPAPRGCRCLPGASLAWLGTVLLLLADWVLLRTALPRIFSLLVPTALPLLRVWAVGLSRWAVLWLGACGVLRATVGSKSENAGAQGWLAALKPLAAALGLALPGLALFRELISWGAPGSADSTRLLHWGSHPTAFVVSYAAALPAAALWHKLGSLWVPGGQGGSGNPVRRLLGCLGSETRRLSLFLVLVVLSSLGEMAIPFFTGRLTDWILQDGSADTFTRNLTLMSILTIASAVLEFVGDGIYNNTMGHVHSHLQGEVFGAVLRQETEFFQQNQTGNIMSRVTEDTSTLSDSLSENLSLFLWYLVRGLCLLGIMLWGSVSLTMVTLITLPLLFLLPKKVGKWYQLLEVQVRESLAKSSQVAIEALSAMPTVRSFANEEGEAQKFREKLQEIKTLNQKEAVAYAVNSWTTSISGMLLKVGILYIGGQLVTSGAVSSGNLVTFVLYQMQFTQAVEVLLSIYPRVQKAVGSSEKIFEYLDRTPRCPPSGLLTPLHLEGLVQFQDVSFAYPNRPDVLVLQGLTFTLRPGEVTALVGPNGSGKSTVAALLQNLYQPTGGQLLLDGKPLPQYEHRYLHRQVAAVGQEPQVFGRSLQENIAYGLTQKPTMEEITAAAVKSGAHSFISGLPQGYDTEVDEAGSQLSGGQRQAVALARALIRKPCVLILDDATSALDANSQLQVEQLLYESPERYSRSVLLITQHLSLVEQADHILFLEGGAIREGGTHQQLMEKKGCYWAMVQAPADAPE
Text: anti-TAP1 rabbit monoclonal primary antibodies were directed against the sequence […] (SEQ ID NO: 23), which represents amino acids 625-640 of human TAP1. The peptide was synthesized and covalently conjugated to keyhole limpet haemocyanin (KLH) carrier protein. Rabbits were immunized with KLH-conjugated peptide with complete Freund's adjuvant followed by a series of booster injections of the same immunogen in incomplete Freund's adjuvant. The rabbit that produced the best positive polyclonal antibody by immunohistochemistry (IHC) was chosen for monoclonal development. IHC staining was performed on a BenchMark automated slide stainer at Roche Diagnostics in Tucson, AZ. The staining procedure included deparaffinization, pretreatment using standard Cell Conditioning 1, incubation with antibody (TAP1: 0.925 μg/mL) at 36° C. for 16 min. […] TAP1 was detected by immunohistochemistry (IHC) using OptiView Universal DAB detection kit (Ventana).
Rabbit monoclonal antibody S14H22L21 was applied onto formalin fixed paraffin embedded tissue samples to assess the staining patterns of the antibody by IHC as described in Example 1. […] Cell lysates from HEK293T cells, HEK293T cells expressing TAP1, and HEK293T cells expressing TAP2 were analyzed alongside lysates from a negative control cell line (RPMI6226) and two positive control cell lines (HDLM2 and U266B1).

human TAP2 protein = molecular target: T2, human TAP2 protein (human, UniProt Q03519 1-686); test: western blot of lysates of HEK293T cells expressing TAP2
T2 construct: It is an intracellular protein; also called recombinant TAP2
T2 sequence: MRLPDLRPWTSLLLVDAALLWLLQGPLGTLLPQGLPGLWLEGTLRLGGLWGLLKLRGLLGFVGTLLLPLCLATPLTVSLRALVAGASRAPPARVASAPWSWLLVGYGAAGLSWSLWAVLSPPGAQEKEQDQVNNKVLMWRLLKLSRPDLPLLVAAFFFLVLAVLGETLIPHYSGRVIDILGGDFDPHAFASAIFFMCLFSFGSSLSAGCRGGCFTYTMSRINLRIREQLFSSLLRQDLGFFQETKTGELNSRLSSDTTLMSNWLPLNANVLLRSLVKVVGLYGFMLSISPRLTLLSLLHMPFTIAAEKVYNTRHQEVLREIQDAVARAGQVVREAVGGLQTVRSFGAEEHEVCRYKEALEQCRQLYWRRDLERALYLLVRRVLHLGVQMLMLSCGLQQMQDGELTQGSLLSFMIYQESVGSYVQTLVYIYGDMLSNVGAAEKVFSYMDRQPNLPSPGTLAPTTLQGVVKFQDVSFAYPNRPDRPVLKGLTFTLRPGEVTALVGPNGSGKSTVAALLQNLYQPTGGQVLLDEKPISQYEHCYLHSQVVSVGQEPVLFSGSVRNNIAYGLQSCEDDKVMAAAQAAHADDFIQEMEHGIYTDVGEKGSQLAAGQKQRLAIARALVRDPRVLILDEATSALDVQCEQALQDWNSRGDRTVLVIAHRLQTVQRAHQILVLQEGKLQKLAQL
Method: Rabbit monoclonal antibody S14H22L21 was applied onto formalin fixed paraffin embedded tissue samples to assess the staining patterns of the antibody by IHC as described in Example 1. Tissue samples included the positive and negative controls listed in Example 1, 8 ccRCC tissues, and a tour of tumor array (see FIGS. 4A-4B and 5A-5C). Western blot analysis was carried out to assess the specificity of S14H22L21. Cell lysates from HEK293T cells, HEK293T cells expressing TAP1, and HEK293T cells expressing TAP2 were analyzed alongside lysates from a negative control cell line (RPMI6226) and two positive control cell lines (HDLM2 and U266B1).

[1] = molecular target: T3, human TAP1 peptide DGKPLPQYEHRYLHR (human, also: conjugated to KLH for immunisation); test: raised against the peptide; ELISA screen of antibody-expressing cells on the immunogenic peptide (Example 1)
T3 construct: Synthetic peptide, conjugated to KLH for immunisation; also called immunogenic peptide
T3 peptide: DGKPLPQYEHRYLHR

- binding result (human TAP1 protein): binds
- binding result (human TAP2 protein): no binding
- binding result [1]: binds
B1: rabbit anti-human TAP1 monoclonal antibody S14H22L21 (antibody, V domains shown)
VH: QSVKESEGGLFKPTDTLTLTCTVSGFSLSSYEVIWVRQAPGKGLEWIGNIGWRDTTFYANWAKSRSTFTRDTNLNTVTLKMTSLTAADTATYFCARDNGYFGIDYWGPGTLVTVSS
VL: DIVMTQTPASVEAAVGGTVTIKCQASQSISNYLAWYQQKPGQPPKLLIYKASTLASGVPSRFSGSGSGTQFTLTISGVQCDDAATYYCQQDFNYRNIENVFGGGTGVVVK
notes: Recombinant rabbit monoclonal, purified on Protein A; also called clone S14H22L21; TAP1 antibody
